Assay [1] addresses T1, hIL4Rα-ECD(26-232)-His (human, UniProt P24394 26-232).
T1 construct: Labelled with biotin (NH2-reactive) for the ELISA; unlabelled as analyte in Biacore; also called hIL4Rα-ECD-His
The assay can be described thus: SPR (Biacore 8K), antibody captured on Protein A, antigen as analyte, 1:1 model. For orientation: Surface plasmon resonance follows binding to a sensor surface in real time, without labels.

In assay [2] the target is T2, hIL4Rα-ECD(26-232)-mFc (human).
T2 construct: also called IL4Rα-ECD protein
The assay can be described thus: competition ELISA, hIL4R-ECD-mFc captured by anti-mFc, biotinylated human IL4 as competitor.

Assay [3] has as its target T1, hIL4Rα-ECD(26-232)-His. The assay can be described thus: SPR (Biacore 8K), antibody captured on Protein A, antigen as analyte, 1:1 model. The source holds these as a separate data set.

In general, Kd refers to the free concentration of one partner at which half of the binding sites on the other are occupied at equilibrium, for simple one-to-one binding. A higher Kd goes with lower affinity. A word on the koff: it is the rate constant with which the complex falls apart. Lower therefore signals slow dissociation. The kon is the rate constant with which the complex forms. Low values mean slow association, high ones fast association. What is called IC50 is the concentration that gives 50% inhibition.

Where two headings read alike, the source gives them in different places.

B1: IL4R-hum-18H5L1 (antibody, V domains shown)
VH: EVTLKESGPVLVKPTETLTLTCTVSGFSLTNYGVHWIRQPPGKALEWLGVIWSGGSTDYNAAFKSRLTISKDNSKSQVVLTMTNMDPVDTATYYCARNKGTRPVFDYWGQGTTVTVSS
VL: DIQMTQSPSSLSASVGDRVTITCRASENIYSYLAWYQQKPGKAPKLLIYNAKTLAEGVPSRFSGSGSGTDFTLTISSLQPEDFATYYCQHYVSPLTFGQGTKLEIK
notes: also called humanized antibody of IL4R-CHI-18, H5 + L1
In assay [1], B1 yielded a Kd of 0.0763 nM, a koff of 0.000151 s⁻¹ and a kon of 1.98e+06 M⁻¹ s⁻¹. In assay [2], the concentration for half-maximal inhibition (IC50) came out at 2.39 nM.

B2: IL4R-hum-04H7L1 (antibody, V domains shown)
VH: EVQLQESGPGLVKPSETLSLTCTVSGYSISSDYAWNWIRQPPGKGLEWIGYISYSGSSSYNPSLKSRVTISVDTSKNQFSLKLSSVTAADTAVYYCARGGLRRRGLFDYWGQGTTVTVSS
VL: DIQLTQSPSFLSASVGDRVTITCRATSSVTYMHWYQQKPGKAPKPWIYATSNLASGVPSRFSGSGSGTEFTLTISSLQPEDFATYYCQQWSSIPLTFGQGTKLEIK
notes: also called humanized antibody of IL4R-CHI-04, H7 + L1
B2: in assay [1], the Kd was 0.233 nM, the koff came out at 0.000445 s⁻¹ and the kon came to 1.91e+06 M⁻¹ s⁻¹. Also, the IC50 in assay [2] came out at 1.52 nM.

B3: IL4R-CHI-17 (antibody, V domains shown)
VH: QAYLQQSGAELVRPGASVKMSCKASGYTFTSYNMHWAKQTPRQGLEWIGSIYPGNGDTSYNQKFKGKATLTVDKSSSTAYMQLSSLTSEDSAVYFCARGGRLRRGDWFAYWGQGTLVTVSA
VL: DIQMTQSPASLSASVGETVTITCRASENIYSYLIWYQQKQGKSPQLLVYDAKTLAEGVPSRFSGSGSGSQFSLKINSLQPEDFGTYYCQHHYGTPLTFGGGTKLELK
notes: Chimeric IgG: murine variable regions on human IgG4 CH1-CH2-CH3 and human kappa constant regions; also called anti-IL4Rα chimeric antibody 17
Consider B3, for which the equilibrium dissociation constant (Kd) in assay [3] was 0.289 nM.

B4: IL4R-hum-07H1L3 (antibody, V domains shown)
VH: EVQLVQSGAEVKKPGSSVKVSCKASGYTFSEYTIHWVRQAPGQGLEWMGWFYPGRGSIKYNEKFKDRVTITADKSTSTAYMELSSLRSEDTAVYYCTRHEYRGSNYAMDYWGQGTTVTVSS
VL: DIVMTQSPDSLAVSLGERATINCRSSQSIVHSSGNTYLQWYQQKPGQSPKLLIYKVSNRFSGVPDRFSGSGSGTDFTLTISSLQAEDVAVYYCFQGSHVPPTFGGGTKVEIK
notes: also called IL4AR-hum-07H1L3; humanized antibody of IL4R-CHI-07, H1 + L3
In assay [1], B4 registered a Kd of 0.315 nM, a koff of 0.000468 s⁻¹ and a kon of 1.48e+06 M⁻¹ s⁻¹. This molecule displayed an IC50 in assay [2] of 1.41 nM.

B5: IL4R-hum-14L2H2 (antibody, V domains shown)
VH: EVQLVESGGGLVQPGGSLRLSCAASGFTFSSYAMSWVRQAPEKRLEWVAIISGGGDSTYYPDSVKGRFTISRDNAKNSLYLQMNSLRAEDTAVYYCARLHYWYFDFWGQGTTVTVSS
VL: DIQMTQSPSSLSASVGDRVTITCKASEDLYNRLAWYQQKPGKAPKLLISGATSLETGVPSRFSGSGSGRDFTLTISSLQPEDFATYYCQQYWRNPYTFGGGTKVEIK
notes: also called humanized antibody of IL4R-CHI-14, L2 + H2
In assay [1], B5 registered a Kd of 0.154 nM, a koff of 5.07e-05 s⁻¹ and a kon of 329000 M⁻¹ s⁻¹. Also, the IC50 in assay [2] was 2.2 nM.

B6: IL4R-CHI-14 (antibody, V domains shown)
VH: EVMLVESGGGLVKPGGSLKLSCAASGFTFSSYAMSWVRQTPEKRLEWVAIISGGGDSTYYPDSVKGRFTISRDNAKNTLYLQMSSLRSEDTALYFCARLHYWYFDFWGTGTTVTVSS
VL: DIQMTQSSSSFSVSLGDRVTITCKASEDLYNRLAWYQQKPGNAPRLLISGATSLETGVPSRFSGSGSGRDYTLIITSLQTEDVATYYCQQYWRNPYTFGGGTKLEIK
notes: Chimeric IgG: murine variable regions on human IgG4 CH1-CH2-CH3 and human kappa constant regions; also called anti-IL4Rα chimeric antibody 14
Take B6: the Kd in assay [3] is 0.097 nM.

B7: IL4R-hum-17L1H4 (antibody, V domains shown)
VH: EVQLVQSGAEVKKPGASVKVSCKASGYTFTSYNMHWARQAPGQRLEWMGSIYPGNGDTSYNQKFKGRVTITVDKSASTAYMELSSLRSEDTAVYYCARGGRLRRGDWFAYWGQGTLVTVSS
VL: DIQMTQSPSSLSASVGDRVTITCRASENIYSYLIWYQQKPGKSPKLLIYDAKTLAEGVPSRFSGSGSGTDFTLTISSLQPEDFATYYCQHHYGTPLTFGGGTKVEIK
notes: also called humanized antibody of IL4R-CHI-17, L1 + H4
In assay [1], B7 came in with a Kd of 0.283 nM, a koff of 0.000302 s⁻¹ and a kon of 1.07e+06 M⁻¹ s⁻¹. Further, the IC50 in assay [2] was 1.82 nM.

B8: IL4R-hum-13H1aL2a (antibody, V domains shown)
VH: EVQLVQSGAEVKKPGASVKVSCKASGYTFTDYYMNWVRQAPGQRLEWMGTINPYNAGTGYNQKFKGRVTITVDKSASTAYMELSSLRSEDTAVYYCARSLLRRRGAMDYWGQGTTVTVSS
VL: DIVLTQSPDSLAVSLGERATINCRASKSVSTSGYGYIHWYQQKPGQPPKLLIYLVDNLESGVPDRFSGSGSGTDFTLTISSLQAEDVATYYCQHIRELYTFGGGTKVEIK
notes: also called humanized antibody of IL4R-CHI-13, H1a + L2a
In assay [1], B8 had a Kd of 0.0692 nM, a koff of 9.25e-05 s⁻¹ and a kon of 1.34e+06 M⁻¹ s⁻¹. Also, in assay [2], the IC50 was determined as 1.92 nM.

B9: IL4R-CHI-18 (antibody, V domains shown)
VH: QVQLKQSGPGLVQPSQSLSVTCTVSGFSLTNYGVHWVRQSPGKGLEWLGVIWSGGSTDYNAAFKSRLSISKDNSKSQVFFKMNSLQADDTAIYYCARNKGTRPVFDYWGQGTTLTVSS
VL: DIQMTQSPASLSASVGETVTITCRASENIYSYLAWYQQKQGKSPQLLVYNAKTLAEGVPSRFSGSGSGTQFSLKINSLQPEDFGSYYCQHYVSPLTFGAGTKLEVK
notes: Chimeric IgG: murine variable regions on human IgG4 CH1-CH2-CH3 and human kappa constant regions; also called anti-IL4Rα chimeric antibody 18
Take B9: in assay [3], the Kd is 0.0943 nM.

B10: IL4R-CHI-07 (antibody, V domains shown)
VH: QVQLQQSGAELVKPGASVKLSCKASGYTFTEYTIHWVKQRSGQGLEWIGWFYPGRGSIKYNEKFKDKATLTADKSSSTVYMELSRLTSEDSAVYFCTRHEYRGSNYAMDYWGQGTSVTVSS
VL: DVLMTQTPLSLPVSLGDQASISCRSSQSIVHSSGNTYLQWYLQKPGQSPKLLIYKVSNRFSGVPDRFSGSGSGTDFTLKISRVEAEDLGVYYCFQGSHVPPTFGGGTKLEIK
notes: Chimeric IgG: murine variable regions on human IgG4 CH1-CH2-CH3 and human kappa constant regions; also called anti-IL4Rα chimeric antibody 07
In assay [3], B10 had a Kd of 0.294 nM.

B11: IL4R-CHI-13 (antibody, V domains shown)
VH: EVQLQQSGPVLVKPGASVKMSCKASGYTFTDYYMNWVKQRHGKSLDWIGTINPYNGGTGYNQKFKGKATLTVDKSSSTAYMELNSLTSEDSAVYFCARSLLRRRGAMDYWGQGTSVTVSS
VL: DIVLTQSPASLVVSLGQRATISCRASKSVSTSGYGYIHWYRQKPGQPPKLLIYLVSNLESGVPARFSGSGSGTDFTLNIHPVEEEDAATYYCQHIRELYTFGGGTKLEIK
notes: Chimeric IgG: murine variable regions on human IgG4 CH1-CH2-CH3 and human kappa constant regions; also called anti-IL4Rα chimeric antibody 13
B11 came in with a Kd in assay [3] of 0.0779 nM.

B12: IL4R-CHI-04 (antibody, V domains shown)
VH: DVQLQESGPGLVKPSQSLSLTCTVTGYSITSDYAWNWIRQFPGNKLEWMGYISYSGSSSYNPSLKSRISITRDTSKNQFFLQLNSVTTDDTATYYCAGGGLRRRGLFDYWGQGTTLTVSS
VL: QIVLSQSPAILSASPGEKVTMTCRATSSVTYMHWYQQKPGSSPKPWIYATSNLASGVPARFSGSGSGTSYSLTISRVEAEDTATYYCQQWSSIPLTFGAGTKLELK
notes: Chimeric IgG: murine variable regions (from hybridoma IL4R-SFM-04) on human IgG4 CH1-CH2-CH3 and human kappa constant regions; also called anti-IL4Rα chimeric antibody 04
On to B12, for which binding in assay [3] was characterised by a dissociation constant (Kd) of 0.513 nM.

(Values after patent EP4755920A1 (Simcere Pharmaceutical Co., Ltd., dated 2026).)
